The source of these data is US20090208538A1 (ROCKEFELLER UNIVERSITY, published 2009).

The target of test [1] is HLA-A2.1/cdr2(290-298) complex (human). Put plainly: cell-based or functional assay.
The target in test [2] is HLA-A*2402 (human). Put plainly: iTopia net score.
The target of test [3] is HLA-A*2402 (human). Put plainly: iTopia off-rate.
In test [4] the target is HLA-A*0101 (human). Put plainly: iTopia off-rate.
The target of test [5] is T1, HLA-A*1501 (human).
T1 construct: possibly meant as HLA-B*1501
As to the kind of experiment: iTopia affinity.

For test [6], the target named is HLA-A*0101 (human). Put plainly: iTopia net score.
Test [7] concerns the target HLA-A*2402 (human). As to the kind of experiment: iTopia affinity.
For test [8], the target named is T1, HLA-A*1501. Put plainly: iTopia net score.
For test [9], the target named is HLA-A*0101 (human). Put plainly: iTopia affinity.
Test [10] concerns the target T2, HLA-A*0201 (human).
T2 construct: also called HLA-A2.1; HLA A2.1
As to the kind of experiment: iTopia binding.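 Note: each peptide tested for binding to HLA-A2 molecules immobilized on plates, using a commercial screening kit run per its supplied protocol and reagents.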

Test [11] addresses T2, HLA-A*0201. Put plainly: iTopia off-rate.
Test [12] deals with T2, HLA-A*0201. As to the kind of experiment: iTopia net score.
For test [13], the target named is T2, HLA-A*0201. Put plainly: iTopia affinity.

B1: cdr2-specific murine T cell receptor of CTL clones 11 and 12 (TCR, V domains shown)
V domain 1: QQQVRQSPQSLTVWEGGTTVLTCSYEDSTFNYFPWYQQFPGEGPALLISILSVSDKKEDGRFTTFFNKREKKLSLHIIDSQPGDSATYFCAASGASGGSNAKLTFGKGTKLSVKS
V domain 2: DSGVVQSPRHIIKEKGGRSVLTCIPISGHSNVVWYQQTLGKELKFLIQHYEKVERDKGFLPSRFSVQQFDDYHSEMNMSALELEDSAMYFCASSLGGWAEQFFGPGTRLTVLE
For B1, the “IFN-γ release, ELISA” value in [1] amounted to 20 fold above background.

On to SFACLKELY [cdr2 157-165 SFACLKELY], for which the iScore in the test with HLA-A*2402 [2] was 0.157; with HLA-A*0101 [6], 0.137; with HLA-A*1501 [8], 0.132. Further, the t1/2 in the test with HLA-A*2402 [3] worked out at 0.5; with HLA-A*0101 [4], 0.97. Also, the ED50 stood at 5.3 µM with HLA-A*1501 [5], 1.4 µM with HLA-A*2402 [7] and 6.9 µM in the test with HLA-A*0101 [9].

LLEEMFLTV [cdr2 290-298 LLEEMFLTV]: the “binding vs positive control” value in the test with HLA-A*0201 [10] was greater than 30%. Further, the t1/2 with HLA-A*0101 [4] amounted to 0.27; with HLA-A*0201 [11] it was 5.9. The iScore with HLA-A*0101 [6] is 0.063; in the test with HLA-A*0201 [12], 0.815. The results for the ED50 with HLA-A*0201 [13] and in the test with HLA-A*0101 [9] were 0.6 µM and 21 µM, respectively.
